What is called Kd is a measure of binding affinity in units of concentration. High values mean a looser complex, low ones a tighter complex.

Three molecules from article PMC3175489 can be followed below.

The target in data set [1] is T1, SOX2 (human, UniProt P48431 1-317). In words: Ni-NTA filter microplate fluorescent DNA binding.
The next data set deals with NANOG (human, UniProt Q9H9S0 1-305). Kind of data set: Ni-NTA filter microplate fluorescent DNA binding.
Data set [2] addresses T1, SOX2. Kind of data set: competition.

T1 sequence (P48431 whole entry): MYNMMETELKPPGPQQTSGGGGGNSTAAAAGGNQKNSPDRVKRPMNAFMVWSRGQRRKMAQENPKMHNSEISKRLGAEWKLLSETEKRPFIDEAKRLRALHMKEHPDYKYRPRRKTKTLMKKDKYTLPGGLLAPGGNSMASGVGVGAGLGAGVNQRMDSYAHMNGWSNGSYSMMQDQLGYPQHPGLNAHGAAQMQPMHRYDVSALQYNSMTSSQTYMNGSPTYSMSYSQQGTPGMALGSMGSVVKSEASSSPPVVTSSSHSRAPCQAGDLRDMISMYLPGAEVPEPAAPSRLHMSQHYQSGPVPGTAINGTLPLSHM
Chain of NANOG (Q9H9S0 whole entry): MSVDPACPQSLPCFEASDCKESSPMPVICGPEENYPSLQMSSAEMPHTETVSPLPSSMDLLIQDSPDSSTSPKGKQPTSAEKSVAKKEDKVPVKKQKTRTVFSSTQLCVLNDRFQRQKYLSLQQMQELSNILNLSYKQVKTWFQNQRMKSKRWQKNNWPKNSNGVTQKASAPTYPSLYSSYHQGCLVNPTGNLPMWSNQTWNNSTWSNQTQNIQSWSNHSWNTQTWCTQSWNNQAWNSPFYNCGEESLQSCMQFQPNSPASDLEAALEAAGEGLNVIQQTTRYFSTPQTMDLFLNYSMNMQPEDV

B1: SOX2 cognate probe (CR4 POU5F1) (dsDNA)
DNA 1: GCAGAGGACAAAGGTGCCGTG
DNA 2: CACGGCACCTTTGTCCTCTGC
In the data set with SOX2 [1], B1 yielded a Kd of 54.2 ± 9 nM.

B2: NANOG cognate probe (Tcf3 enhancer) (dsDNA)
DNA 1: ACCTGTTAATGGGAGCGC
DNA 2: GCGCTCCCATTAACAGGT
B2: the Kd in the data set with NANOG was 44 ± 6 nM.

B3: nonsense probe (dsDNA)
DNA 1: GCCCGATTACTCTGTCCT
DNA 2: AGGACAGAGTAATCGGGC
B3: the binding result with SOX2 [2] is given as “no binding”.
